Patent publication US20150344548A1

Experiments:
[1] = target: Staphylococcus aureus protein A (SpA) in the cell wall of SA bacteria (strain ATCC #25923 and clinical isolate 00X) (Staphylococcus aureus); assay: flow cytometry: SA strain ATCC #25923 by the legend (printed on the sheet as 25935) pre-incubated with human sera for 15 minutes, then biotinylated MABp1-IgG3 (isotype-matched negative control), then streptavidin-APC (bottom panel)
[2] = target: Staphylococcus aureus protein A (SpA) in the cell wall of SA bacteria (strain ATCC #25923 and clinical isolate 00X) (Staphylococcus aureus); assay: flow cytometry: SA clinical isolate 00X pre-incubated with human sera for 15 minutes, then biotinylated MABp1-IgG3 (isotype-matched negative control), then streptavidin-APC (top panel)
[3] = target: Staphylococcus aureus protein A (SpA) in the cell wall of SA bacteria (strain ATCC #25923 and clinical isolate 00X) (Staphylococcus aureus); assay: flow cytometry: SA clinical isolate 00X incubated with biotinylated MABp1 (negative control), then streptavidin-APC; mean fluorescence FL4-H from the table beside the histogram (top panel)
[4] = target: Staphylococcus aureus protein A (SpA) in the cell wall of SA bacteria (strain ATCC #25923 and clinical isolate 00X) (Staphylococcus aureus); assay: flow cytometry: SA strain ATCC #25923 incubated with biotinylated MABp1 (negative control), then streptavidin-APC; mean fluorescence FL4-H from the table beside the histogram (bottom panel)

MABp1-IgG3 (antibody)
Mean:FL4-H [1]: 10.3
Mean:FL4-H [2]: 19.1

MABp1-IgG1 (antibody)
Mean:FL4-H [3]: 29.8
Mean:FL4-H [4]: 46.7
